In the nanobody polyreactivity screen of Harvey et al. (2022):

test: yeast display, Sf9 membrane polyspecificity reagent, FACS + sequencing; frameworks hold sequencing errors
Summary of the method: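 Using colony PCR, genes from sorted yeast display clones were amplified, then sequenced on MiSeq at 2 × 250 and filtered by CDR length. The clones had been stained with 10% biotinylated, detergent-solubilized Sf9 membrane reagent for 1 hour at 4 °C and sorted by FACS into low and high (top ~1%) gates on anti-HA and streptavidin fluorescence. Polyreactivity labels come from the gate of origin.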

Sequence | polyreactivity (PSR sort gate)
QVQLVESGGGLVQAGGSLRLSCAASGSTFHRNGMGWYRQAPGKERELVAAISRTGGSTYYADSEKGRFTISRDNAKNTVYLQMNSLKPEDTAVYYCAAQGNNYVRHTYGYWGQGTQVTVSS | low polyreactivity
QLQLVESGGGLVQAGGSLRLTCAASGIIFAYNARGWYRQAPGKERELVATITDSRGSTSYADSVKGRFTISRDNAKNTVYLQMNSLKPEDTAVYYCAVLPVYWYWRNYVYLSGYDYWGQGTQVTVSS | low polyreactivity
QVQIVESGGGLVQAGGSLRLSCAASGYPFCRNAMGCYRQAPGKERELVAAISRSAGSTNYADSVKGRFTISRDNAMYTVYFQMNSLKPEDTAVYYGAADRYYRDPYWGNYWGQGTQVTVSS | high polyreactivity
QVQLVESGGGLVQAGGSLRLSCAASGFILRYNAMGWYRQAPGKERELVAAISYTGDRTYYADSVKGRFTISRDNAKNTVYLQMNSLKPEDTAVYYCNAGKGQRALVRIGSKLMYYWGQGTQVTVSS | high polyreactivity
QVQLVESGGGLVQAGGSLRLSCAASGRIFRYNTMGWYRQAHGKERELVAAIDRGSSTNYADSVKGRFTISRDNAKNTVYLQMNSLKPEDTAVYYCAARVFRPYGSLYDYWGQGTQVTVSS | high polyreactivity
QVQLVESGGGLVQAGGSLRLSCAASGYTFSLNAMGWYRQAPGKERELVAAIRGGGSTNYADSVKGRFTISRDNAKKTVYLQMNSLKPEDTAVYYCAASSYNGHVYWGQGTQVTVSS | low polyreactivity
QVQLVESGGGLVQAGGSLRISCAASGTNNRTYAMGWYRQSTGKERDLVAAISKRGGSTYYADSVKGRFTISRDKAKNTVYLQMNSLKPEDTEVYYCAKKSTPGYGTSNDSWVQGTQVTVSS | high polyreactivity
QVQLVESGGCSVQAGGSLRLICAASGYTFYINAMGWYRPAPGKERELVAVITWSSGSTYYADSVKGRFTISRDNAKNTVYLQMYSLKAEDTAVYYCAADVTYEDGAWTIQYDYWGQGTQVTVSS | high polyreactivity
QVQLVESGGGLVQAGGSLRLSCAASGGTLRGYAMGGYRQAPGKEREFDATISRRGGSTYYADSVKGRFTNSRDNAKNTVYLQMNSLKPEDTAVYYCAKQGQSDYYSWGQGTQVTVSS | high polyreactivity
QVQLVESGGGLVQAGGSLRLSCAASGRIFWSYAMGWYRPAPGKERELVAAISYSGGGTYYADSVKGRFTISRDNAKNTVYLQMNSLKPEDTAVYYCAAETYYAPYDYWGQGTQVTVSS | high polyreactivity
QVQLVESGGVLVQAGGSLRLSCAASGSTFNSYVMGWYRQAPGKEREFVAAISWSGVRTYYADSVKGRFTISRDNAKNTVYLQMNSLKPEDTAVYYCAVRSGRRNYVRPAFGYWGQGTQVTVSS | high polyreactivity
QVKLGESGGGLVQAGGSLRLSCAASGSILEFNAKGWYRQAPGKERELVAGITRDGGTTYADSVKGRFTISRDNAKNNVYFQMNSLKPEDNAVYYCAGTYYFSRWDLYGYWGHGTQVTVSS | low polyreactivity
QVQLVESGGGLVQAGGSLRLSCAASGRTFAHYTMGWYRQEPGKERELVAGITRGGSTYYADSVKGRFTISRDNAKNNVYLQMNSVKPEDTAVYYCNAVTNYFYRRMEYWGQGTQVTVSS | high polyreactivity
QVQLVESGGGLVQAGGSLRLSCAASGSTFTSNAMGWYRQAPGKEREFVAAISVGGGITYYADSVKGRFTISRDNAKISVYLQMNSLKPEDTAVYYCAADGEYPHSEDFEYWGQGTQVTVSS | low polyreactivity
QVQLVESGGGLVQAGGSLRLSCAASGITFTFYAMGWYRQAPGKERELVAAISRRGGSTYYADSVKGRFTISRDNAKNTVYLQMNSLKPEDTAVYYCAARGYRPMDYWGHGTQVTVSS | high polyreactivity
QVQLVESGGGLVQAGGSLRLSCAASGSTFAYNDMGWYRLAPGKERELVADIRSGGNTNYADSVKGRFTISRDNAKNTVYLQMNSLKPEDTAVYYCATDGYRIDVYHPDYRYDYWGQGTQVTVSS | low polyreactivity
QVQLVESGGGLVQAGGSLRLSCAASGSTIYNYAMGWYRQATGKERELVAVISRSGGRTYYADSVKGRFTISRDNAKNTVYLQMNSLKPEDTAVYYCAADTYRGYDFDYWGQGTQVTVSS | high polyreactivity
QVQLVESGGGLFQAGGSLRLSSAASGIIFGYYSLGWYRQAPGKERELVAAINQDGSSTYYADSVKGRFTISRDNAKNTVYLQMNSLNPEDTAVYYCNARGVPRQDDRMGYWGQGTQVTVSS | low polyreactivity
QVQLVESGGGLVQAGGSLRLSCAASGRTFAWYAMGWYRQAPGKERELVAAITTRGSGTYYADSVKGRFTISRDNAKNTVYLQMNSLKPEDTAVYYCAKDPITATTLDERVFYWGQGTQVTVSS | low polyreactivity
QVQLVESGGGLVQAGGSLRLSCAASGSTLAGYAMGWYRQAPGQERELVAAIDWTGGSTTYADSVKGRFTISRDNAKNTVYLQMNSLKPEDTAVYYCNVDLGVNCEYWGQGTQVTVSW | low polyreactivity
QVQLVESGGGLVQAGGSLRLSCAASGSTFRYNAMGWYRPAPGKERELVAAITSGGGTNYADSVKGRFTISRDNAKNTVYLQMNSLKPEDTAVYYCAAPWGLGSELLKRDYWGQGTQVTVSS | low polyreactivity

Sequence | polyreactivity (PSR sort gate)
QVQLVESGGGLVQAGGSLRLSCAASASIFILNAMGWYRPAPGKERELVAAISWSGGRTNYADSVKGRFTISRDTAKNTVYLHMNSLKPEETAVYFCAARVTPYRGFYYWGQGTQVTVSS | high polyreactivity
QVHLVESGGGLVQAGGSLRLSCAASGSTFKRYAMGWYRQAPGKERELVASISQRGGTTYYADSVKGRFTISRDNAKNTVYLQMNSLKPEDTAVYYCANGFGWTRTIYDYWGQGTQVTVSS | high polyreactivity
QVQLVESGGGLVQAGGSLRLSCAASGRSFVGNAMGWYRQAPGKERELVASITRGGRTNYADSVNGRFTISRDNAKNTVYLQMNSLKPEDTAVYYCNAPGVTRAYLVGYDYWGQGTQVTVSS | low polyreactivity
QVQLVESAGGLVQAGGSLRLSCAASGFTFTYYVMGWYRQAPGKERELVAAISSGGSTYYADSVKGRFTISRDNAKNTVYLQMNSLKPEDTAVYYCAKGSGYYYRYGYWGQGTQVTVSS | high polyreactivity
QVQLHESGGGLVQAGGGLRLSCAASGSISSTGFMGWYRQAPGKEREPVAAIAPGTTTYYADSVKGRFTISRDNAKNTVYLQMNSLRPEDTAVFYCAVFTDNRVSFRYWGQGTQVTVSS | low polyreactivity
QVQLVESGGGLVQAGGSLRLSCAASGFTFWLYAMGCYRQAPGKEREFVAAISTSGGSTYADSVKGRFTISRDNAKNTVYLQMNSLKPEDTAVYYCNAGYLLYYDYHLFYWGQGTQVTVSS | low polyreactivity
QVQLVESGGGLVQAGGSLRLSCAASGFILEAYAMGWYRQAPGKERELVAAITRRGTRTYYADSVKGRFTLSRDNAKNTVYLQMNSLKPEDTAVYYCNAESRSTWVAGYDYWGQGTQVTVSS | high polyreactivity
QVQLVESGGGLVQAGGSLRLSCAASGSTFGTNVMGWYRQAPGKERELVAAISRRGSSTYYADSVKGRFTISRDNAKNTVYLQMNSLKPEDTAVYYCAARVYPSAAMDSWGQGTQVTVSS | high polyreactivity
QVQLVESGGGLVQAGGSLRLSCAASGRTFRRYAMGWYRQAPGKERELVAAISRSGGSTYYADSVKGRFTISRDNAKNTVYLQMNSLKPEETAVYYCAAGIWSKLVEPFDYWGQGTQVTVSS | high polyreactivity
QVQLVESGGGLVQAGGSLRLSCAASGRIFHQYAMGWYRQAPGKERELVAAITTRGTSTYYADSVKGRFTISRDNAKNTVYLQMNSLKPEDTAVYYCAAKFFGSVGHVAGDYWGQGTQVTVSS | high polyreactivity
QVQLVESVGGLVQAGGSLRLSCAGSGSIFFRNSMLWYRQAPGKERELVAAIRSSVSSTYYADSVKGRFTISRDNAKNTVYLQLNSLKPEDTAVYYCAAAARSYVGYYYWGQGTQVTVSS | low polyreactivity
QVQLVESGGGLVQAGGSLRLSCAASGFIFPYYAMGWYRQAPGKERELVAANSRRGTSTFYADSVKGRFTISRDNAKNNVYLQMNSLKTEDTAVYYCNAEYGIGDDSWVQGTQVTVSS | high polyreactivity
QVQHVESGGGLVQAGGSLRLSCAASGRTFNYYAMGWYRQAPGKERELVAAISSSGGRTYYADSVKGRFTISRDNAKNTVYLQMNSLKPEDTAVYYCAADSFYYRPEYDYWGQGTQVTVSS | low polyreactivity
QVQLVESGGGLVQAGGSLRLSCAASRRIIYRSAMGWYRQAPGKERELLAAITSGDSTYYADSVKVRFTISRDNSKNTVFLQMNSLKPEDTAVYYCAADYLSRSPAYEHYYWGQGTQVTVSS | high polyreactivity
QVQLVESGGGLVQAGGSLRLSCAASGRTFRYYAMGWYRQAPGKERELVAAITGSGGSTYYADSVKGRFTISRDNAKNTVYLQMNSLKPEDTAVYYCATRWALRWRGGYWGQGTQVTVSS | high polyreactivity
QVQLVESGGGLVQAGGRLSLSCAASGSIFSIYAMGWYRPSPGKERELVSGIRSTVSTNYADSVKGRFTISRDNAKNTVYLQMNSLKPEDTAVYYCATGTPTAPGNYWGQGTQVTVSS | low polyreactivity
QVQLVESGGGLVHAGGSLLLSCAASGSTLRPNAMGWYRKAPGKERELVDAISSGGSTYYADSVKGRFTISRDNAKYSVYLQMNSLKPEDTAVYSCAAASERSGYYYWGQGTQVTVSS | high polyreactivity
QVQLVESGGGLVQAGGSLRLSCAASGFTIGKNAMGWYRQAPGKERELVAAISLSGGRTYADSVKGRFTISRDNAKNTVYLQTNSLKPEDTAVYYCAANRYPKFYWGQGTQVTVSS | high polyreactivity
QVQLVESGGGLVQAGGSLRLSCADSGFIFLGNARGWYRQAAGKERELVAASSSGGSTYADSVKGRFTISRDNAKNTVYLQMNSLKPEDTAVYYCALDPPFPAQNYHEDDYWGQGTQVTVAS | low polyreactivity
QVQLVESGGGLVQAGGSLRLSCAASGRTFGSNAMGWYRQAPGKERELVAAIRWGGGSTYYADSVKGRFTISRDNAKNTVYLQMNSLKPEDTAVYYCAAAYNWRKYDYWGQGTQVTVSS | high polyreactivity
